Source: the DeepSol protein solubility set

Test: soluble on expression in E. coli; label from the status in PepcDB or PDB records

Sequence | soluble on expression in E. coli
MRLGICSHTLCPPIEGNIKQHLHNPMKEEEFNELKQNLDSYTPLLPESVTDYFMEKAGVVTSDQSVKKLVSLLAHKFVTDIAVSSFQYHRINQKAAQKDKRFAKEKKPTFQLVDLEKALEEVGISISRPHYYM | not soluble
MLLTNKGDVMLGLKQVHHIAIIATDYAVSKAFYCDILGFTLQSEVYREARDSWKGDLALNGQYVIELFSFPFPPERPSRPEACGLRHLAFSVDDIDAAVAHLESHNVKCEAIRVDPYTQKRFTFFNDPDGLPLELYEQ | not soluble
MLRQIGEFYHQGEKDDTSRVWMTCWHHGGRILASCGDDKAVRVWSLVGEPDSKMRLECRTTLDDSHTRAVRSVAFSNDGKCLVSASFDASVVVYQQEDGEFAEVNKLEGHESEVKCAVFSKSDEFLATCSRDKSVWFWQQDEDEDFSVSSILQPHTQDVKQVAWHPTEDLLVSCSYDSSIRFYRFDGEDWVTQQKIDGCHVGTVWSIAFDTEGHRLVTVGEDHCIQLFVRENIGSKSADQDTWKSVARYDVENTRWPLYSVAWNSTNDVIATGGGDCKIRLFKISSTPESPVIEHLGVVGRHELDVNHVAWNPNPKFSNLLTSASDDGTIRLWELEI | not soluble
MSDPRYQIDVSVVTRYLKEQSDPENSRFAFAYTITVQNNGSLSAKLLSRHWLITNGDGEVEEVRGAGVVGQQPNIDPGQSHTYSSGAVISTRVGTMQGSYQMFAEDGKRFDAEIAPFRLAVPGALHLEHHHHHH | soluble
MQSQWCARQQDMIAVYGALAEQCDYALHLGLTEAGMGSKGIVASTAALAVLLFKGIGDTIRVSLTPEPGGDRAREVIVAQEILQTMGLRAFVPLVAACPGCGRTTSTYFQELAESIQIYVREQMVIWREQYEGVENMSLAVMGCVVNGPGESKHADIGISLPGSGETPVAPVFVDGQKTVTLKGDNIAGEFRMIVDEYVRTKYRKKAANALEHHHHHH | not soluble
NVPVGMSIGVYDYELSDYAERMDAISGGAIRSSFARNGGIGFDIGASLQIGYMIKFTDSIGLSILAEAGYSHDTYSYISRLDKNNSYSYSFESLQLGVIPKFNIKNFAIGIGGGVKIPLAGNIHTKTSLFESNTKLTSDDIKRLYEKALMPYIKVTFDYSIFFTQKTAFNIGLYLGYDFGLEPNIYTVDGAIDGNRLVVDEVSYSSFDVGLQVGLKFGPSTK | not soluble
SFAAIASGNPLQLSVEVPNSNGLQHTIVLSRTKPKLYSHITLFILPNVTFPQDYIATVYFKLSPQEEFKLFGYLSSEKPSAIFKVQIPSSKKDAGDTSDGLGEIDMDVDDGSGAADPFTDTNGSSSNNISELIIGISIEPREQGMMKLEEWKASMNAEAQKNNSLILSRPNLGIIRNITTAGQLAQVYPSLTQELAAKIVQHAYNYLSGFLDAQGNVPIKRFDTWWDKFRNRLANDGTFLDEVTKN | soluble
MTAEVTAADAEVLLAQPRGFCAGVDRAIDIVERALELHGAPIYVRHEIVHNRYVVEDLRGKGAVFIDELDQAPAGAIVVFSAHGVSQAVRGEAEARGLRVFDATCPLVTKVHIEVARMRAAGREIVMIGHKGHPEVEGTLGQAQGGMYLVETVEDVAALQVSDPGNLAYVTQTTLSVDDAAAVAGALKARFPGIVEPKKSDICYATQNRQDAVKLLAPECDLVLVVGSTNSSNSNRLREVAERKGVAAYLIDGAHAIDPAWLQGRRSIGITAGASAPEVLVQQVVERVRELGAVSVRTMPGLEESVAFPLPKGLSRKIAQTESLEAAALEHHHHHH | not soluble
MPNFWALPPEINSTRIYLGPGSGPILAAAQGWNALASELEKTKVGLQSALDTLLESYRGQSSQALIQQTLPYVQWLTTTAEHAHKTAIQLTAAANAYEQARAAMVPPAMVRANRVQTTVLKAINWFGQFSTRIADKEADYEQMWFQDALVMENYWEAVQEAIQSTSHFEDPPEMADDYDEAWMLNTVFDYHNENAKEEVIHLVPDVNKERGPIELVTKVDKEGTIRLVYDGEPTFSYKEHPKF | not soluble
MKAYLHVASGKTFSGELAAPLEEKVSGEIVFFTGMTGYQEVLTDPSYKNQIIVFTYPLIGNYGINENDFESKRPHVEAVVVYEASREGFHYGAKYSLAEYLQHWNIPLLTHVDTRALVKEIRTAGTMMAELSLSPISAVGGEEAVFPVRAVSTKTIETYGEGGPHLVLVDFGYKKSILQSLLARGCRVTVVPHDTTPEAIDALKPDGLVLSNGPGDPKQLRHQLPAIRQLIDRYPTLAICLGHQLVALAYGADTEKLRFGHRGANQPVWDAVKQNVMMTSQNHSYVVKEGSLVGKPFDIRFINVNDGSVEGIVHRHKPILSVQYHPEAHPGPHDTGYIFDEFLQTVFKGENVYA | soluble
